Results as given in patent publication US11278600B2, “Human alpha-galactosidase variants” (Codexis, Inc., priority 2014, dated 2022).
Residue numbers refer to the chain shown, from its start.

How the values were obtained:
Format in all cases: biochemical
[1] = HTP-analysis of yeast culture supernatants, no challenge (MUGal hydrolysis); details: activity of the variant/activity of WT GLA (SEQ ID NO: 5), yeast supernatant
How it was run: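 GLA variants expressed in yeast INVSc1, secreted into SD-Ura broth over 66-84 h at 30° C; clarified supernatants tested without challenge. Supernatant mixed with McIlvaine buffer pH 4.8 and 2 mM MUGal (citrate/KCl, pH 4.6), 37° C for 30-180 min, carbonate-quenched, fluorescence Ex 355/Em 448 nm.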

[2] = HTP-analysis of supernatants pretreated with acid (MUGal hydrolysis); details: challenge at pH 4.2; activity of the variant/activity of WT GLA (SEQ ID NO: 5); yeast supernatant
How it was run: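 Yeast INVSc1 supernatant, GLA variants; acid challenge: McIlvaine pH 3.3-4.3, 37° C., 1-3 h. Assay: MUGal in McIlvaine pH 4.8 plus citrate pH 4.3, 37° C., 30-180 min, Na2CO3 stop, Ex 355/Em 448 nm.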

[3] = HTP-analysis of supernatants pretreated with base (MUGal hydrolysis); details: challenge at pH 7.1; activity of the variant/activity of WT GLA (SEQ ID NO: 5); yeast supernatant
How it was run: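 Supernatants from INVSc1 yeast expressing GLA variants (SD-Ura, 66-84 h, 30° C) were mixed with McIlvaine buffer pH 7.0-8.2 or 200 mM sodium bicarbonate pH 9.1-9.7 and held 1-18 h at 37° C. Residual activity was then measured on MUGal at pH 4.8/4.3, 37° C, 30-180 min, by fluorescence (Ex 355/Em 448 nm).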

B1: 105 (protein)
chain: LDNGLARTPTMGWLHWERFMCNLDCQEEPDSCISEKLFMEMAELMVSEGWKDAGYEYLCIDDCWMAPQRDSEGRLQADPQRFPHGIRQLANYVHSKGLKLGIYADVGNKTCAGFPGSFGYYDIDAQTFADWGVDLLKFDGCYCDSLENLADGYKHMSLALNRTGRSIVYSCEWPLYMWPFQKPNYTEIRQYCNHWRNFADIDDSWKSIKSILDWTSFNQERIVDVAGPGGWNDPDMLVIGNFGLSWNQQVTQMALWAIMAAPLFMSNDLRHISPQAKALLQDKDVIAINQDPLGKQGYQLRQGDNFEVWERPLSGLAWAVAMINRQEIGGPRSYTIAVASLGKGVACNPACFITQLLPVKRKLGFYEWTSRLRSHINPTGTVLLQLENTMQMSADLLL
modifications: Synthetic Polypeptide sequence of Variant No. 105 of mature Human GLA
Relative Activity of GLA Variants After No Challenge (NC) [1]: +++ (+++ = >2.5 relative activity over WT GLA (SEQ ID NO: 5)) | Relative Activity of GLA Variants After Challenge at pH 4.2 [2]: ++ (++ = >1.5 to 2.5 relative activity over WT GLA (SEQ ID NO: 5)) | Relative Activity of GLA Variants After Challenge at pH 7.1 [3]: ++ (++ = >1.5 to 2.5 relative activity over WT GLA (SEQ ID NO: 5))

B2: 113 (protein)
chain: B1 chain with A394K, L397Q
modifications: Synthetic Polypeptide sequence of Variant No. 113 of mature Human GLA
Relative Activity of GLA Variants After No Challenge (NC) [1]: ++ (++ = >1.5 to 2.5 relative activity over WT GLA (SEQ ID NO: 5)) | Relative Activity of GLA Variants After Challenge at pH 4.2 [2]: + (+ = 0.5 to 1.5 relative activity over WT GLA (SEQ ID NO: 5)) | Relative Activity of GLA Variants After Challenge at pH 7.1 [3]: +++ (+++ = >2.5 relative activity over WT GLA (SEQ ID NO: 5))

B3: 117 (protein)
chain: B1 chain with A394K, L398G
modifications: Synthetic Polypeptide sequence of Variant No. 117 of mature Human GLA
Relative Activity of GLA Variants After No Challenge (NC) [1]: ++ (++ = >1.5 to 2.5 relative activity over WT GLA (SEQ ID NO: 5)) | Relative Activity of GLA Variants After Challenge at pH 4.2 [2]: ++ (++ = >1.5 to 2.5 relative activity over WT GLA (SEQ ID NO: 5)) | Relative Activity of GLA Variants After Challenge at pH 7.1 [3]: ++ (++ = >1.5 to 2.5 relative activity over WT GLA (SEQ ID NO: 5))

B4: 114 (protein)
chain: B1 chain with A394K, L397R
modifications: Synthetic Polypeptide sequence of Variant No. 114 of mature Human GLA
Relative Activity of GLA Variants After No Challenge (NC) [1]: ++ (++ = >1.5 to 2.5 relative activity over WT GLA (SEQ ID NO: 5)) | Relative Activity of GLA Variants After Challenge at pH 4.2 [2]: ++ (++ = >1.5 to 2.5 relative activity over WT GLA (SEQ ID NO: 5)) | Relative Activity of GLA Variants After Challenge at pH 7.1 [3]: ++ (++ = >1.5 to 2.5 relative activity over WT GLA (SEQ ID NO: 5))

B5: 110 (protein)
chain: B1 chain with A394K, L397D
modifications: Synthetic Polypeptide sequence of Variant No. 110 of mature Human GLA
Relative Activity of GLA Variants After No Challenge (NC) [1]: +++ (+++ = >2.5 relative activity over WT GLA (SEQ ID NO: 5)) | Relative Activity of GLA Variants After Challenge at pH 4.2 [2]: ++ (++ = >1.5 to 2.5 relative activity over WT GLA (SEQ ID NO: 5)) | Relative Activity of GLA Variants After Challenge at pH 7.1 [3]: +++ (+++ = >2.5 relative activity over WT GLA (SEQ ID NO: 5))

B6: 115 (protein)
chain: B1 chain with A394K, L397T
modifications: Synthetic Polypeptide sequence of Variant No. 115 of mature Human GLA
Relative Activity of GLA Variants After No Challenge (NC) [1]: ++ (++ = >1.5 to 2.5 relative activity over WT GLA (SEQ ID NO: 5)) | Relative Activity of GLA Variants After Challenge at pH 4.2 [2]: ++ (++ = >1.5 to 2.5 relative activity over WT GLA (SEQ ID NO: 5)) | Relative Activity of GLA Variants After Challenge at pH 7.1 [3]: +++ (+++ = >2.5 relative activity over WT GLA (SEQ ID NO: 5))

B7: 107 (protein)
chain: B1 chain with A394S
modifications: Synthetic Polypeptide sequence of Variant No. 107 of mature Human GLA
Relative Activity of GLA Variants After No Challenge (NC) [1]: +++ (+++ = >2.5 relative activity over WT GLA (SEQ ID NO: 5)) | Relative Activity of GLA Variants After Challenge at pH 4.2 [2]: +++ (+++ = >2.5 relative activity over WT GLA (SEQ ID NO: 5)) | Relative Activity of GLA Variants After Challenge at pH 7.1 [3]: +++ (+++ = >2.5 relative activity over WT GLA (SEQ ID NO: 5))

B8: 116 (protein)
chain: B1 chain with A394K, L398E
modifications: Synthetic Polypeptide sequence of Variant No. 116 of mature Human GLA
Relative Activity of GLA Variants After No Challenge (NC) [1]: ++ (++ = >1.5 to 2.5 relative activity over WT GLA (SEQ ID NO: 5)) | Relative Activity of GLA Variants After Challenge at pH 4.2 [2]: ++ (++ = >1.5 to 2.5 relative activity over WT GLA (SEQ ID NO: 5)) | Relative Activity of GLA Variants After Challenge at pH 7.1 [3]: ++ (++ = >1.5 to 2.5 relative activity over WT GLA (SEQ ID NO: 5))

B9: 108 (protein)
chain: B1 chain with A394T
modifications: Synthetic Polypeptide sequence of Variant No. 108 of mature Human GLA
Relative Activity of GLA Variants After No Challenge (NC) [1]: +++ (+++ = >2.5 relative activity over WT GLA (SEQ ID NO: 5)) | Relative Activity of GLA Variants After Challenge at pH 4.2 [2]: +++ (+++ = >2.5 relative activity over WT GLA (SEQ ID NO: 5)) | Relative Activity of GLA Variants After Challenge at pH 7.1 [3]: +++ (+++ = >2.5 relative activity over WT GLA (SEQ ID NO: 5))

B10: 119 (protein)
chain: B1 chain with A394K, L398Q
modifications: Synthetic Polypeptide sequence of Variant No. 119 of mature Human GLA
Relative Activity of GLA Variants After No Challenge (NC) [1]: ++ (++ = >1.5 to 2.5 relative activity over WT GLA (SEQ ID NO: 5)) | Relative Activity of GLA Variants After Challenge at pH 4.2 [2]: ++ (++ = >1.5 to 2.5 relative activity over WT GLA (SEQ ID NO: 5)) | Relative Activity of GLA Variants After Challenge at pH 7.1 [3]: ++ (++ = >1.5 to 2.5 relative activity over WT GLA (SEQ ID NO: 5))

B11: 111 (protein)
chain: B1 chain with A394K, L397H
modifications: Synthetic Polypeptide sequence of Variant No. 111 of mature Human GLA
Relative Activity of GLA Variants After No Challenge (NC) [1]: ++ (++ = >1.5 to 2.5 relative activity over WT GLA (SEQ ID NO: 5)) | Relative Activity of GLA Variants After Challenge at pH 4.2 [2]: ++ (++ = >1.5 to 2.5 relative activity over WT GLA (SEQ ID NO: 5)) | Relative Activity of GLA Variants After Challenge at pH 7.1 [3]: ++ (++ = >1.5 to 2.5 relative activity over WT GLA (SEQ ID NO: 5))

B12: 112 (protein)
chain: B1 chain with A394K, L397I
modifications: Synthetic Polypeptide sequence of Variant No. 112 of mature Human GLA
Relative Activity of GLA Variants After No Challenge (NC) [1]: + (+ = 0.5 to 1.5 relative activity over WT GLA (SEQ ID NO: 5)) | Relative Activity of GLA Variants After Challenge at pH 4.2 [2]: ++ (++ = >1.5 to 2.5 relative activity over WT GLA (SEQ ID NO: 5)) | Relative Activity of GLA Variants After Challenge at pH 7.1 [3]: + (+ = 0.5 to 1.5 relative activity over WT GLA (SEQ ID NO: 5))

B13: 106 (protein)
chain: B1 chain with A394R
modifications: Synthetic Polypeptide sequence of Variant No. 106 of mature Human GLA
Relative Activity of GLA Variants After No Challenge (NC) [1]: ++ (++ = >1.5 to 2.5 relative activity over WT GLA (SEQ ID NO: 5)) | Relative Activity of GLA Variants After Challenge at pH 4.2 [2]: ++ (++ = >1.5 to 2.5 relative activity over WT GLA (SEQ ID NO: 5)) | Relative Activity of GLA Variants After Challenge at pH 7.1 [3]: +++ (+++ = >2.5 relative activity over WT GLA (SEQ ID NO: 5))

B14: 118 (protein)
chain: B1 chain with A394K, L398N
modifications: Synthetic Polypeptide sequence of Variant No. 118 of mature Human GLA
Relative Activity of GLA Variants After No Challenge (NC) [1]: ++ (++ = >1.5 to 2.5 relative activity over WT GLA (SEQ ID NO: 5)) | Relative Activity of GLA Variants After Challenge at pH 4.2 [2]: ++ (++ = >1.5 to 2.5 relative activity over WT GLA (SEQ ID NO: 5)) | Relative Activity of GLA Variants After Challenge at pH 7.1 [3]: ++ (++ = >1.5 to 2.5 relative activity over WT GLA (SEQ ID NO: 5))

B15: 120 (protein)
chain: B1 chain with A394K, L398R
modifications: Synthetic Polypeptide sequence of Variant No. 120 of mature Human GLA
Relative Activity of GLA Variants After No Challenge (NC) [1]: ++ (++ = >1.5 to 2.5 relative activity over WT GLA (SEQ ID NO: 5)) | Relative Activity of GLA Variants After Challenge at pH 4.2 [2]: ++ (++ = >1.5 to 2.5 relative activity over WT GLA (SEQ ID NO: 5)) | Relative Activity of GLA Variants After Challenge at pH 7.1 [3]: ++ (++ = >1.5 to 2.5 relative activity over WT GLA (SEQ ID NO: 5))

B16: 34 (protein)
chain: B1 chain with A337P, A394K
modifications: Synthetic Polypeptide sequence of Variant No. 34 of mature Human GLA
Relative Activity of GLA Variants After No Challenge (NC) [1]: + (+ = 0.5 to 1.5 relative activity over WT GLA (SEQ ID NO: 5)) | Relative Activity of GLA Variants After Challenge at pH 4.2 [2]: ++ (++ = >1.5 to 2.5 relative activity over WT GLA (SEQ ID NO: 5)) | Relative Activity of GLA Variants After Challenge at pH 7.1 [3]: ++ (++ = >1.5 to 2.5 relative activity over WT GLA (SEQ ID NO: 5))
